# Source: patent publication US20110300157A1 (DYAX, published 2011)
# Experiments:
# [1] = biological target: T1, active human MMP-9 catalytic domain (BIOMOL, SE-244) (human, UniProt P14780 107-444, limits assumed); experiment: enzyme inhibition with fluorogenic peptide substrate Mca-KPLGL-Dap(Dnp)-AR-NH2; Ki from IC50 vs substrate concentration, 30 C
# T1 construct: domain: catalytic domain; also called Cat-huMMP-9; cat-huMMP-9
# Protocol: (§1) Materials: [0424] Substrate: Mca-KPLGL-Dap(Dnp)-AR-NH₂ (M-2350) from BACHEM (521575). A 10 mM stock solution was prepared in DMSO. [0425] Enzymes: [0426] Human MMP-9 catalytic domain (BIOMOL, SE-244). Enzyme concentration was measured by titration with TIMP-1 (2522-104) [0427] Mouse MMP-9 (R&D, 909-MM), APMA-activated. [0428] M0237-D02 hIgG1: 2517-014. Dialysed against TCN. [0429] TCNB: 50 mM Tris/HCl, 10 mM CaCl₂, 150 mM NaC, […] Brij 35, pH 7.5. [0430] 96-well black plates from Perkin Elmer (6005270) [0431] Spectramax M2e to measure fluorescence emission of the substrate upon hydrolysis (temperature control set at 30° C.; λexc=328 nm and λₑₘ=393 nm)
# (§2) The enzyme (final concentration=0.23 and 0.17 nM for the human and mouse MMP-9, respectively) was preincubated with various concentrations (0-50 nM) of M0237-D02 for 1 h at 30° C. The substrate was then added to a final concentration ranging from 5 to 40 μM and initial rates were recorded.
# [2] = biological target: Mouse MMP-9 (R&D, 909-MM), APMA-activated (mouse, UniProt P41245 108-730, limits assumed); experiment: as above
# Chain of Mouse MMP-9 (R&D, 909-MM), APMA-activated (P41245 108-730 limits assumed): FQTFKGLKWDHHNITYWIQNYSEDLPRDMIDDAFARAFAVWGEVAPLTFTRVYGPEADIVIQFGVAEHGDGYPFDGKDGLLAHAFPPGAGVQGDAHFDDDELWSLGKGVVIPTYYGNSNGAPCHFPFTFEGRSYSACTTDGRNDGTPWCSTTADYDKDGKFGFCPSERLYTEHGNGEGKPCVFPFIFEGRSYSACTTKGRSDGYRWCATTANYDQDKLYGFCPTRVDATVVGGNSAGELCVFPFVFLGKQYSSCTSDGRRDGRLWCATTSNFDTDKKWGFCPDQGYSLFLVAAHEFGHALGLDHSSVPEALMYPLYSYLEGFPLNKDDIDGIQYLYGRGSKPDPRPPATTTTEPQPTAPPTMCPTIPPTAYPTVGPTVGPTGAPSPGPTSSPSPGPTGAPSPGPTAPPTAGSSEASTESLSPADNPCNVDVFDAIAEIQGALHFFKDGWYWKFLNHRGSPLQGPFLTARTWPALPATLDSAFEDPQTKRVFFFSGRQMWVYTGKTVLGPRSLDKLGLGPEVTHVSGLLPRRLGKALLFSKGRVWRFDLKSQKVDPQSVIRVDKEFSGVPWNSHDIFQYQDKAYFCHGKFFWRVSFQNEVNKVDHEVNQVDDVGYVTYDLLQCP
# Protocol: as §1, §2
# [3] = biological target: T1, active human MMP-9 catalytic domain …; experiment: plot of kobs vs antibody concentration from inhibition progress curves, 25 C
# Protocol: Materials: [0447] Substrate: Mca-KPLGL-Dap(Dnp)-AR-NH₂ (M-2350) from BACHEM (521575). A 10 mM stock solution was prepared in DMSO. [0448] Human MMP-9 catalytic domain (BIOMOL, SE-244). [0449] M0237-D02 hIgG1: 2517-068. [0450] All measurements were performed at 25° C. in TCNB: 50 mM Tris/HCl, 10 mM CaCl₂, 150 mM NaCl 0.05% Brij 35, pH 7.5. [0451] 96-well black plates from Perkin Elmer (6005270) [0452] Spectramax M2e to measure fluorescence emission of the substrate upon hydrolysis (λexc=328 nm and λₑₘ=393 nm)
# The enzyme (at a final concentration ranging from 1.5 to 12.3 nM), the substrate (9 μM final) and the M0237-D02 antibody were mixed, and the fluorescence was immediately recorded in order to follow the hydrolysis of the substrate. The observed inhibition rate (kobs) was obtained by analyzing the progress curves with a single exponential. The value for kₒₙ and koff were calculated from the plot of the kobs vs. the antibody concentration using the following equation: […]
# [4] = biological target: T2, h-MMP-9/h-TIMP-1 complex (human, UniProt P14780 107-444; P01033 24-207, limits assumed); experiment: SPR Biacore 3000, antibody amine-coupled to CM5 chip (direct capture)
# T2 construct: also called huTIMP-1/cat-huMMP-9; MMP-9/TIMP-1 complex
# T2 sequence (P14780 107-444 limits assumed, chain 1 of 2): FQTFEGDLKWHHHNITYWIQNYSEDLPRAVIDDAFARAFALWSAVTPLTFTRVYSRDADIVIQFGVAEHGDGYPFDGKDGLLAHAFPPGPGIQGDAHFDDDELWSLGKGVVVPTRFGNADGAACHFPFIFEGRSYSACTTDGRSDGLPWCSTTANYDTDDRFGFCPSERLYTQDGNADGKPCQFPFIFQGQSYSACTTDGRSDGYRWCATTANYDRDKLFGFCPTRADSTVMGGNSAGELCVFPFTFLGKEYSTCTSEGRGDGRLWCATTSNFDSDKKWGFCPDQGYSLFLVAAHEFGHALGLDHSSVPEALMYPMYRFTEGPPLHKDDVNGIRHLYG
# T2 sequence (P01033 24-207 limits assumed, chain 2 of 2): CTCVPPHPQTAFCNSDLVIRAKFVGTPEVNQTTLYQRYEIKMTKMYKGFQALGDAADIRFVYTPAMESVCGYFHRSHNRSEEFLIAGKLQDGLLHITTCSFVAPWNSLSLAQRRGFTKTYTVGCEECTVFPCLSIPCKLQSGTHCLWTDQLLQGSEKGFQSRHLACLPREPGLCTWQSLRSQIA
# Protocol: (§3) Experiments were performed at 25° C. with the help of a Biacore 3000 instrument. The MMP-9 binding protein (M0166F10) and the M0237-D02 antibody were coated to a CM5 chip either via standard amine coupling or using an anti-Fc antibody surface. Then either the active, human MMP-9 catalytic domain (BIOMOL, SE-244), the human pro-MMP-9 (R&D, 911-MP), the human TIMP-1 (R&D, 970-TM) or a h-MMP-9/h-TIMP-1 complex were flowed over the antibody surfaces, and binding was recorded.
# (§4) It was shown that the human MMP-9 catalytic domain binds to M0166-F10, whether this antibody is directly captured via amine coupling or captured with an anti-Fc antibody surface.
# [5] = biological target: T3, human pro-MMP-9 (R&D, 911-MP) (human, UniProt P14780 20-707); experiment: as above
# T3 construct: Zymogen form; also called Pro-huMMP-9
# T3 sequence (P14780 20-707): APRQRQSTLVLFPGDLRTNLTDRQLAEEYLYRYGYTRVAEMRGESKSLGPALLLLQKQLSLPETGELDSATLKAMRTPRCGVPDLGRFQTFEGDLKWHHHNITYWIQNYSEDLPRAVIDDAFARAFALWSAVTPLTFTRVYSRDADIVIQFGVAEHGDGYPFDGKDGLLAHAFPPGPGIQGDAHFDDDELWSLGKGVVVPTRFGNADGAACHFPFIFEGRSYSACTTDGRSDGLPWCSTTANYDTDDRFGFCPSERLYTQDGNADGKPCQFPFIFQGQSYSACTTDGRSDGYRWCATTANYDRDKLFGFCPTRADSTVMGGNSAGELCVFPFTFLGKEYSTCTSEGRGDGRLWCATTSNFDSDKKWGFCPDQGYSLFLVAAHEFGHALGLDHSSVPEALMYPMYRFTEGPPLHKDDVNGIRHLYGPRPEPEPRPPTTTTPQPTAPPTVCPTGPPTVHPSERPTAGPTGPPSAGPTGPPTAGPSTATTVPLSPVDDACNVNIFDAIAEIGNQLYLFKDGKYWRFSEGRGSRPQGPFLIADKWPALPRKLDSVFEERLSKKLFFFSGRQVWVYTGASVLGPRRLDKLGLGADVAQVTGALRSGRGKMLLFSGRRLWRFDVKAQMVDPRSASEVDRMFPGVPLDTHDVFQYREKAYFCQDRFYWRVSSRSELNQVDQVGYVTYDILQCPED
# Protocol: as §3, §4
# [6] = biological target: T4, human TIMP-1 (R&D, 970-TM) (human, UniProt P01033 24-207); experiment: as above
# T4 construct: also called huTIMP-1; h-TIMP-1
# T4 sequence (P01033 24-207 limits assumed): as the sequence (P01033 24-207 limits assumed, chain 2 of 2) above
# Protocol: as §3, §4
# T1 sequence (P14780 107-444 limits assumed): as the sequence (P14780 107-444 limits assumed, chain 1 of 2) above
Binder,Ki [1],Ki [2],koff [3],kon [3],binding result [4],binding result [5],binding result [6]
"539A-M0237-D02 hIgG1 (antibody, V domains shown, Tested as hIgG1; also called M237-D02; DL8) VH: EVQLLESGGGLVQPGGSLRLSCAASGFTFSQYPMWWVRQAPGKGLEWVSYIVPSGGRTYYADSVKGRFTISRDNSKNTLYLQMNSLRAEDTAVYYCAKDRAYGDYVGWNGFDYWGQGTLVTVSS VL: DIQMTQSPATLSLSPGERATLSCRASQSISSFLAWYQQKPGQAPRLLIYDASYRATGIPARFSGSGSGTDFTLTISSLEPEDYAVYYCQQRGNWPITFGQGTRLEIKR",0.92 nM,1.3 nM,~0.0004 s⁻¹,~70000 M⁻¹ s⁻¹,no binding,–,–
"539A-M0166-F10 (antibody, V domains shown, also called DL15) VH: EVQLLESGGGLVQPGGSLRLSCAASGFTFSPYLMNWVRQAPGKGLEWVSSIYSSGGGTGYADSVKGRFTISRDNSKNTLYLQMNSLRAEDTAVYYCARIYHSSSGPFYGMDVWGQGTTVTVSS VL: QSELTQPPSASAAPGQRVTISCSGSSSNIGSNTVTWYQKLPGTAPKLLIYNNYERPSGVPARFSGSKSGTSASLAISGLQSEDEADYYCATWDDSLIANYVFGSGTKVTVLG",–,–,–,–,no binding,no binding,no binding
